In patent publication US20110311535A1 one finds ADCC by thioglycollate-elicited macrophages (percent of target cells) and complement-dependent lysis of YAC-1 cells data, which are given here for one molecule.

This assay deals with NKG2D ligands expressed on YAC-1 cells. Description: cell-based or functional assay.

B1: murine NKG2D-Fc fusion protein (IgG2a-IEGR-NKG2D construct) (Fc fusion, mouse, not shown: a dimerising Fc or GST)
chain: IEGRETFQPVLCNKEVPVSSREGYCGPCPNNWICHRNNCYQFFNEEKTWNQSQASCLSQNSSLLKIYSKEEQDFLKLVKSYHWMGLVQIPANGSWQWEDGSSLSYNQLTLVEIPKGSCAVYGSSFKAYTEDCANLNTYICMKRAV
Consider B1, for which the ADCC by thioglycollate-elicited macrophages (percent of target cells) worked out at 55% and the complement-dependent lysis of YAC-1 cells came out at 80%.
